Data from publication PMC2194227.

Legend:
[1] = target: WT mCD1d cytoplasmic tail peptide (…) (mouse); assay: SPR
[2] = target: mutant mCD1d cytoplasmic tail peptide (…), tyrosine substituted for alanine (mouse); assay: SPR

adaptor protein complex 3 (AP-3) purified from pig brain cytosol
Kd [1]: 540 nM | Kd [2]: 2630 nM
